Patent publication US20090098568A1

Target: cyclophilin A, N-terminally His- and FLAG-tagged fusion protein (UniProt P62937)
Test: SPR (Biacore S51); 1 uM cyclosporin A injected for 1.5 minutes over Cyph immobilized (approx. 3,400 RU) on an NTA sensor chip

Sequence of UniProt P62937 (P62937 other isoform, or with tags, fused parts or gaps limits assumed): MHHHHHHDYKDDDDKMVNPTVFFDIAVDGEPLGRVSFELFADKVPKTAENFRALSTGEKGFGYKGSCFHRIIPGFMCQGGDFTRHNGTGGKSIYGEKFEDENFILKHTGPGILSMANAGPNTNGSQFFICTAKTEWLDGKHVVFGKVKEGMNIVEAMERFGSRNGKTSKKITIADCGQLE

response (RU): 43 RU
Substance: Cyclosporin A (peptide)
